The source of these data is the DeepSol protein solubility set.

This data set is described as follows: soluble on expression in E. coli; label from the status in PepcDB or PDB records.
In the case of “MNTNNALMQRRHNAVPRGVGQIHPIFAERAENCRVWDVEGREYLDFAGGIAVLNTGHLHPGIVSAVEAQLKKLSHTCFQVLAYEPYLALCERMNQKVPGDFAKKTLLVTTGSEAVENAVKIARAATKRSGAIAFSGAYHGRTHYTLSLTGKVHPYSAGMGLMPGHVYRALYPCPLHNISDDDAIASIERIFKNDAAPEDIAAIIIEPVQGEGGFYAASPAFMQRLRALCDQHGIMLIADEVQSGAGRTGTLFAMEQMGVAADITTFAKSIAGGFPLAGVTGRADVMDAIAPGGLGGTYAGNPIACAAALAVLDIFEQENLLQKANTLGKTLRDGLMEIAETHREIGDVRGLGAMIAIELFENGDPGKPNAALTADIVTRAREKGLILLSCGPYYNILRILVPLTIEASQIRQGLEIIAQCFDEAKQA”, the “soluble on expression in E. coli” value was “not soluble”.

Take “MNTSSSADPKPDASLSSSNSKIKKEEDLEAMKEAIAQLLQGVEELTQDKLNDAKSRKKLEESMEELKSQNLDLKAQLDFQMAHFQSLFEAHEKEIADLKARQYQNNSIAAQTPPPDVRQELRSFPMVKHSRENPELRNVPVLIFSRCMLCETDEHTIHSCPIYNTNSKRYEGFKDKGLCRSCALPANSDGSATCGRNCMFSRRRCTNCWDKGGDKSYVYHLEFTCRWDERRSQRTSPFSTDHSDRSSKHPRISFDECENHHY”: the “soluble on expression in E. coli” value was “not soluble”.

As to “MNTTEFDGISHAEGLCDKEFIGKAISYLYRYGQIYIGKKIEPYGIGSGQFPFLMRLYREDGINQESLSDYLKIDKGTTARAIQKLVDEGYVFRQRDEKDRRSYRVFLTEKGKKLEPDMKKIASEWGEILFSSFDDRQRREITNSLEIMFENGLKIM”, the “soluble on expression in E. coli” value is “not soluble”.

For the sequence “MNTVFSNIANAKITEKSLNAVWMDLFKSADEVLMATGYVSNDAVVELHKILELNDHIQKIDLLVGMHYLEGFSHLQYDSLCKLNDFLRHEKRGAVYVSPFVKFHGKMYSFKNYQKINGLIGSANLTCFWDSTERTYETMLHLNGKPAQILQADIQSTIHKLGKNIQEVERPSKFIEHNSHLENCLGVQKIAPEQIRQLFAQTSEYHFSIPAKTEEKSNLNVFFGEGRRDKRGFVKPRPWYEVELIVSKDITSQEGYPVLKSFTVITDDGWQFQCKTSGDYSKNFRSENDLKTLGKWIKGRLESHGCLQNNEKITHETLREYGNDHFELRSTDNPDVWLLSFKGKN”, the “soluble on expression in E. coli” value is listed as “not soluble”.

As to “MNVETIREYCLSKKGVTESFPFDDVSLVMKVLDKMFALIDLEGANSISLKCDPERAIELREHYAGIEGAYHFNKKYWNGVYFDRDVDDKLIKELVDHSYEEVIKKFTKKLRAEYDALP”, the “soluble on expression in E. coli” value is “not soluble”.

As for “MNVSFSTPVQNSTASRLALIQQAAARSGALPPAGQYRGSKLSPFDVSQMSGVSISMVERAKINGPEFVEELEWLRQQTTSRCFLDAEMWTNEILAHLPDKWCAPNTLNLYNQVSELVLDNTRSPMASPASNSLYAPGEDQMPTVKRNHTSRFAQSLIKNKEFRRAAFFLEKTMNGNKLDHFLHFRCLFLAYYQEHLENDAEGIERKTSFAEERSPFSLLYQRMEDKKLRENEDVWFEYLMGLLEVELGLKDLAEKSFRNVVIREPRIWPAWEALSRLIADIEDADKFVTSAEVKSLWMGDWFMTLVLQRFHQHSMAIQKAEQLVTRGMTGLPMIITKIAACSNARHDHDQAISNFEDVRKADPYRLGDLHLLSDSLYIRNDQKKLSTLAIEVYKVHKFRWETCCIVANYHAIRRDSEHAIKFFQRALRLNPGLAALWVLIGHEFMEMKNNAAACVSYRRAIEIDPADHRGWYGLGQMYDIMKMPAYALFYYQEAQKCKPHDSRLLVALGDIYSKLNRIEDAEKCFTGAYLFGDVEGNALWSLAKLHERYSDDNKAAQAFEVFLVVYELVTSAEEKIIYAIAFLANHFFKIEDFDKASEYATKCLAFETLCQEGNRLFREIAKIQARESRLPVEEAPGPSNASAAGGQEAMDTEEAPQEGGEEEMSEGEDDFSF”, the “soluble on expression in E. coli” value is reported as “not soluble”.

“MNYATTPTAFVESKLNSMPGDALGYLRRLDQRWQALCQGDLPPIAEVAQKVNTNLGEADFDAVICGGTLGILLAASLQIRGWQVVVIERGKLQGRAQEWNISRQELQTFVELELLTSEELETAIASEYNPGRIAFHGGQEFWIKNVLNVGIDPIYLLEKLKQKFLQAGGKLLEHSAFQKAIIHSDGVAISYQHDGENQVERKLTSRLLIDAMGHGSPLVNQARQGEIPDGVCLVVGSCAQGYSDNETGDLIATTTGITNHCQYFWEAFPARDGRTTYLFTYVDVHPERISLEFFFQEYFRLLPEYQKINLDQLQWQRFLSGFFPAYKSSPLHFSWGRVLAVGDSAGSQSPVSFGGFGAMVRHLKRLTNAIGEALAGDYLAAEDLALLQPYQPNIGVTWLFQQTMGVKVGQTADPEQINRLMNAVFAVMDRQGQEVMEPFLQDVIQWSGLTQTLPRVNPLIVLPLLPQIGLPALMEWLGHYANLAGYSLTYPLAKNLLFTNPSFEQKRRLEAWYYGSGYDFHH”: the “soluble on expression in E. coli” value was “not soluble”.

Take “MNYIGSKYKLIPFIKENIHAVVGDNLSGTIFCDLFAGTGIVGRAFKKAVNKVISNDLEYYSFVLNQNYIGNIQEIPNQEELINEINSVALKKGFIYSYYSLGGSSRQYFSETNAQKIDAMRLKIEELKLSQNIDNCTYYFLLASLLESADKVANTASVYGAFLKRLKKSAQKELILKGADFDLSLNANEVYQQDASELIGKISGDILYLDPPYNARQYGANYHLLNTIAIYTPFAPKGKTGLPSYQKSSFCSRAKILNAFENLIKTARFKYIFLSYNNEGLMSETEIGNILKKYGTYSLMTKTYMRFKADNKRTHKAAHTKECLHILIK”: the “soluble on expression in E. coli” value is reported as “not soluble”.

For the sequence “MNYNPEEQFRCTIIRGKAKNMLDNLLPAYANIIDDICPCDKASFVKDFNNRLIEILGEETTKKTLDNHRTEIAGKLFGMFYEDDEVIFPSGRTNKYIEDSDQPAFFKDICFKFQFPNGMDKLDKVIEKVGAKIQIRQFPYILQVLLTADNNNIQLSKDDIAYYVLNSLQVLQGKIKPIEVIEKIIEDRSNDITKKVRHPGKETSYSMQHIREQLNYLELANLIRIDGNLVKLNYREAENINYIAQFWGNKPEFNAYKYDFTSEDDKKSFFKDWQQYYSNVNSHKS”, the “soluble on expression in E. coli” value is on record as “soluble”.

On to “MPANKAKYKIIKQQVKNNILSARYKIGDRLPTESDFMAEFDVSRFTIRRAIDELVNENFVRRVQGNGMYIKDWHKVNKADEDLRTIAVITTHVADYIFPNIINAIDKVISDAGYSLILANTHNDPKRERDNLLRLLKLKPSAWIIEPTQSAVNRENLDLYQQIKKLDVPAVFINSSYPGIGFPCLKTDDRGSLSELTNYLFSIGHRRIMGVFQIDDIQGVERMKGFADAYLGHPYFSDRQTTIMYKSTDDYDEIFTRITNFYKNQTVDKPDAIICYNDQLAIALIDNLKEQGWKIPEDISIIGFDDYNISRYITPTLTTLSHPKSQMGRDAGKMILNLIDNKAVKSITYYPELVLRKSVMPI”, for which the “soluble on expression in E. coli” value is given as “not soluble”.

Take “MPAPDPMRGDPPHPAPPRLRSPLDPTSGDPLHPAPPRLRSPLDPTSGDPLHPAPPRLRSPLDPTSGDPLHPAPPRLRSPLVLLDGASMWFRSFFGVPSSITAPDGRPVNAVRGFIDSMAVVITQQRPNRLAVCLDLDWRPQFRVDLIPSYKAHRVAEPEPNGQPDVEEVPDELTPQVDMIMELLDAFGIAMAGAPGFEADDVLGTLATRERRDPVIVVSGDRDLLQVVADDPVPVRVLYLGRGLAKATLFGPAEVAERYGLPAHRAGAAYAELALLRGDPSDGLPGVPGVGEKTAATLLARHGSLDQIMAAADDRKTTMAKGLRTKLLAASAYIKAADRVVRVATDAPVTLSTPTDRFPLVAADPERTAELATRFGVESSIARLQKALDTLPG”: the “soluble on expression in E. coli” value is recorded as “not soluble”.

Regarding “MPARRSAARIDFAGSPRPTLGVEWEFALVDSQTRDLSNEATAVIAEIGENPRVHKELLRNTVEIVSGICECTAEAMQDLRDTLGPARQIVRDRGMELFCAGTHPFARWSAQKLTDAPRYAELIKRTQWWGRQMLIWGVHVHVGIRSAHKVMPIMTSLLNYYPHLLALSASSPWWGGEDTGYASNRAMMFQQLPTAGLPFHFQRWAEFEGFVYDQKKTGIIDHMDEIRWDIRPSPHLGTLEVRICDGVSNLRELGALVALTHCLIVDLDRRLDAGETLPTMPPWHVQENKWRAARYGLDAVIILDADSNERLVTDDLADVLTRLEPVAKSLNCADELAAVSDIYRDGASYQRQLRVAQQHDGDLRAVVDALVAELVI”, the “soluble on expression in E. coli” value was “soluble”.

As to “MPCAETFGSEYFLAQGSPVNSTATPPEPLPPFLQPGDRVLLFDGVCKLCNASVRFVIRHDSQRRIKLASVQSPQGQALLAWFGLPTEQFDSVVLIEEGRLSQRSDAFIRLMAQLPAPWRWLRLLRGVPRPLRDWVYDLIARNRYRLFGRLDVCLLPSPDHQGRFLDDPSLEHHHHHH”, the “soluble on expression in E. coli” value is “not soluble”.
